How the values were obtained:
[1] = target: human ether-à-go-go-related gene potassium channel 1 (hERG), wild type, in Xenopus laevis oocytes (human) (UniProt Q12809); assay: two-electrode voltage clamp (fraction of uninhibited tail currents)
[2] = target: human ether-à-go-go-related gene potassium channel 1 (hERG), stable HEK 293 cell line (human) (UniProt Q12809)
[3] = target: human ether-à-go-go-related gene potassium channel 1 (hERG), wild type, in Xenopus laevis oocytes (human) (UniProt Q12809)

Work on “recombinant APETx1 (wild type) (peptide)” yielded an apparent Kd, model (A): four equivalent and independent binding sites per channel, fractional toxin-sensitive current [1] of 1200 nM, an apparent Kd, model (B): four equivalent and independent binding sites per channel, fully toxin-sensitive current [1] of 1700 nM and an apparent Kd, model (C): one binding site per channel, fractional toxin-sensitive current [1] of 230 nM. For the same substance, the toxin-induced shift of the half-maximal activation voltage (ΔV1/2) of hERG, whole-cell patch clamp, APETx1 0.1-10 μM; value at 10 μM [2] was 23.9 mV and the toxin-induced shift of the half-maximal activation voltage (ΔV1/2) of hERG, TEVC recordings in oocytes, APETx1 0.1-10 μM; value at 10 μM [3] was 21.9 mV.
